Test results published in patent US20200330588A1.

Columns and labels:
Test in all cases: flow cytometry, HEK293 cells transfected with gH alanine mutant and gL; % of gH-positive cells compared to WT
[1] = target: gH mutant 485-492 (consecutive alanine substitutions) transfected into HEK293 cells with gL (Human cytomegalovirus (consensus sequence; strain of the construct not stated); Human cytomegalovirus)
[2] = target: gH alanine mutant 486-487 transfected into HEK293 cells with gL (Human cytomegalovirus (consensus sequence; strain of the construct not stated); Human cytomegalovirus)
[3] = target: gH alanine mutant 480-481 transfected into HEK293 cells with gL (Human cytomegalovirus (consensus sequence; strain of the construct not stated); Human cytomegalovirus)
[4] = target: gH alanine mutant 488-489 transfected into HEK293 cells with gL (Human cytomegalovirus (consensus sequence; strain of the construct not stated); Human cytomegalovirus)
[5] = target: gH mutant 480-486 (consecutive alanine substitutions) transfected into HEK293 cells with gL (Human cytomegalovirus (consensus sequence; strain of the construct not stated); Human cytomegalovirus)
[6] = target: gH alanine mutant 490-491 transfected into HEK293 cells with gL (Human cytomegalovirus (consensus sequence; strain of the construct not stated); Human cytomegalovirus)
[7] = target: gH alanine mutant 484-485 transfected into HEK293 cells with gL (Human cytomegalovirus (consensus sequence; strain of the construct not stated); Human cytomegalovirus)
[8] = target: gH alanine mutant 482-483 transfected into HEK293 cells with gL (Human cytomegalovirus (consensus sequence; strain of the construct not stated); Human cytomegalovirus)
[9] = target: gH alanine mutant 478-488 (label as in Table 6)

human anti-gH monoclonal antibody MSL-109
Avg. binding (% of mass) [1]: 65% | Avg. binding (% of mass) [2]: 66% | Avg. binding (% of mass) [3]: 87% | Avg. binding (% of mass) [4]: 111% | Avg. binding (% of mass) [5]: 66% | Avg. binding (% of mass) [6]: 89% | Avg. binding (% of mass) [7]: 86% | Avg. binding (% of mass) [8]: 92% | Avg. binding (% of mass) [9]: 100%
